First the molecules themselves.
B1: OR4K15 (parent)
chain: GUUAACGGUCAUAGGCCAUGGAAACUAGGAGCACCAUUUCGCUGCCAGUGAAGAAAUGAACAAAGAAAAUCUGGGCCAGGCAGGCAUCAAAAGAAAUAGUCUUGCGCUCAACCAGAAAGUCUGUAAUCAUUUUAAGGGUA

Variants of B1 are the subject of this series. The series is described as follows: self-cleavage, relative activity (ratio to wild type); higher = more cleavage; in vitro, sequencing; the parent is a self-cleaving ribozyme.
Consider GUUAACGGUCAUAGGCCAUGGAAACUAGGAGCACCAUUUCGCUGCCAGUGAAGAAAGGAACAAAGAAAAUCUGGGCCAGGCAGGCAUCAAAAGAAAUAGUCUUGCGCUCGACCAGAAAGUCUGUAAUCAUUUUAAGGGUA [U57G A110G], for which the self-cleavage came out at 0.17. On to GUUAACGGUCAUAGGCCAUGGAAACUAGGAGCACCAUUUCGCUGCCAGUGAAGAAAGGAACAAAGAAAAUCUGGGCCAGGCAGGCAUCAAAAGAAAUAGUCUUGCGCUCAACCAGAAAGCCUGUAAUCAUUUUAAGGGUA [U57G U120C], for which the self-cleavage stood at 1.11. As for GUUAACGGUCAUAGGCCAUGGAAACUAGGAGCACCAUUUCGCUGCCAGUGAAGAAACGAACAAAGAAAAUCUGGGCCAGGCAGGCAUCAAAAGAAAUAGUCUUGCGCACAACCAGAAAGUCUGUAAUCAUUUUAAGGGUA [U57C U108A], the figure is 0.02. To GUUAACGGUCAUAGGCCAUGGAAACUAGGAGCACCAUUUCGCUGCCAGUGAAGAAAGGAACAAAGAAAAUCUGGGCCAGGCAGGCAUCAAAAGAAAUAGUCUUGCGCUCAACCAGAGAGUCUGUAAUCAUUUUAAGGGUA [U57G A117G] belongs 2.08. As for GUUAACGGUCAUAGGCCAUGGAAACUAGGAGCACCAUUUCGCUGCCAGUGAAGAAAUUAACAAAGAGAAUCUGGGCCAGGCAGGCAUCAAAAGAAAUAGUCUUGCGCUCAACCAGAAAGUCUGUAAUCAUUUUAAGGGUA [G58U A67G], the figure is 0.88; as for GUUAACGGUCAUAGGCCAUGGAAACUAGGAGCACCAUUUCGCUGCCAGUGAAGAAAUUAACAAAGAUAAUCUGGGCCAGGCAGGCAUCAAAAGAAAUAGUCUUGCGCUCAACCAGAAAGUCUGUAAUCAUUUUAAGGGUA [G58U A67U], 2.46; as for GUUAACGGUCAUAGGCCAUGGAAACUAGGAGCACCAUUUCGCUGCCAGUGAAGAAACGAACAAAGAAAAUCUGGGCCAGGCAGGCAUCAAAAGAAAUAGUCUUGCGCUCAACCAGAAAGUCUGUAAUCAUCUUAAGGGUA [U57C U131C], 0.94.

With GUUAACGGUCAUAGGCCAUGGAAACUAGGAGCACCAUUUCGCUGCCAGUGAAGAAACGAACAAAGAAAAUCUGGGCCAGGCAGGCAUCAAAAGAAAUAGUCUGGCGCUCAACCAGAAAGUCUGUAAUCAUUUUAAGGGUA [U57C U103G], the self-cleavage was found to be 0.02.

Turning to GUUAACGGUCAUAGGCCAUGGAAACUAGGAGCACCAUUUCGCUGCCAGUGAAGAAACGAACAAAGAAAAUCUGGGCCAGGCAGGCAUCAAAAGAAAUAGUCUAGCGCUCAACCAGAAAGUCUGUAAUCAUUUUAAGGGUA [U57C U103A], the self-cleavage was determined as 0.15.

As to GUUAACGGUCAUAGGCCAUGGAAACUAGGAGCACCAUUUCGCUGCCAGUGAAGAAACGAACAAAGAAAAUCUGGGCCAGGCAGGCAACAAAAGAAAUAGUCUUGCGCUCAACCAGAAAGUCUGUAAUCAUUUUAAGGGUA [U57C U87A], the self-cleavage came out at 0.98.

As for GUUAACGGUCAUAGGCCAUGGAAACUAGGAGCACCAUUUCGCUGCCAGUGAAGAAAUAAACAAAGAAAAUCUGGGCCAGGCAGGCAUCAAAAGAAAUAGUCUUGCGCUCAACCAGAAAGUCUGUAGUCAUUUUAAGGGUA [G58A A126G], the self-cleavage is 0.63.

Consider GUUAACGGUCAUAGGCCAUGGAAACUAGGAGCACCAUUUCGCUGCCAGUGAAGAAACGAACAAAGAAAAUCUGGGCCAGGCAGGCAUCAAAAGAAAUAGUCUUGCGCUCAACCAGAAAGUCUGUAAUCAUUUCAAGGGUA [U57C U133C], for which the self-cleavage turned out to be 1.02. Consider GUUAACGGUCAUAGGCCAUGGAAACUAGGAGCACCAUUUCGCUGCCAGUGAAGAAACGAACAAAGAAAAUCUGGGCCAGGCAGGCAUCAAAAGAAAUAGUCUUGCGCUCAACCAGAAAGUCUGUAACCAUUUUAAGGGUA [U57C U127C], for which the self-cleavage came to 0.66. For GUUAACGGUCAUAGGCCAUGGAAACUAGGAGCACCAUUUCGCUGCCAGUGAAGAAACGAACAAAGAAAAUCUGGGCCAGGCAGGCAUCAAAAGAAAUAGUCUUGCGCUCAACCAGAAAGUCUGUAAACAUUUUAAGGGUA [U57C U127A], the self-cleavage turned out to be 1.19. Turning to GUUAACGGUCAUAGGCCAUGGAAACUAGGAGCACCAUUUCGCUGCCAGUGAAGAAAGGAACAAAGAAAAUCUGGGCCAGGCAGGCAUCAAAAGAAAUAGUCUUGCGCUCAACCAGAAAGUCUGUAAUCAUUUUAAGGGUA [U57G], the self-cleavage is 1.34.

GUUAACGGUCAUAGGCCAUGGAAACUAGGAGCACCAUUUCGCUGCCAGUGAAGAAACGAACAAAGAAAAUCUGGGCCAGGCAGGCAUCAAAAGAAAUAGUCUUGCGCUCAACCAGAAAGUCUGUAAUCAUUUUAAGGGCA [U57C U139C]: the self-cleavage is 1.94. As for GUUAACGGUCAUAGGCCAUGGAAACUAGGAGCACCAUUUCGCUGCCAGUGAAGAAAGGAACAAAGAAAAUCUGGGCCAGGCAGGCAUCAAAAGAAAUAGUCUUGCGCUCAACCAGAAAGUCUGUAAUCGUUUUAAGGGUA [U57G A129G], the figure is 1.15; as for GUUAACGGUCAUAGGCCAUGGAAACUAGGAGCACCAUUUCGCUGCCAGUGAAGAAAUAAACAAAGAAAAUCUGGGCCAGGCAGGCAUCAAAAGAAAUAGUCUUGCGCUCAACCAGAAAGUCUGUAAUCAUUUUAAGGGCA [G58A U139C], 0.57. To GUUAACGGUCAUAGGCCAUGGAAACUAGGAGCACCAUUUCGCUGCCAGUGAAGAAAUUAACAAAGAAAAUCUGGGCCAGGCAGGCAUCAAAAGAAAUAGUCUUGCGCUCGACCAGAAAGUCUGUAAUCAUUUUAAGGGUA [G58U A110G] belongs 0.11.

GUUAACGGUCAUAGGCCAUGGAAACUAGGAGCACCAUUUCGCUGCCAGUGAAGAAAGGAACAAAGAAAAUCUGGGCCAGGCAGGCAUCAAGAGAAAUAGUCUUGCGCUCAACCAGAAAGUCUGUAAUCAUUUUAAGGGUA [U57G A91G]: the self-cleavage turned out to be 0.52.

For the variant GUUAACGGUCAUAGGCCAUGGAAACUAGGAGCACCAUUUCGCUGCCAGUGAAGAAACGAACAAAGAAAAUCUGGGCCAGGCAGGCAUCAAAAGAAAUAGUCUUGCGCUCAACCAGAAAGUCUGUAAUCACUUUAAGGGUA [U57C U130C], the self-cleavage was found to be 0.78. Take GUUAACGGUCAUAGGCCAUGGAAACUAGGAGCACCAUUUCGCUGCCAGUGAAGAAAGGAACAAAGAAAAUCUGGGCCAGGCAGGCAUCAAAAGAAAUAGUCUUGCGCUCAACCAGAAAGUCUGUAAUCAUUUUAAGCGUA [U57G G137C]: the self-cleavage is 1.71. As for GUUAACGGUCAUAGGCCAUGGAAACUAGGAGCACCAUUUCGCUGCCAGUGAAGAAAGGAACAAAGAAAAUCUGGGCCAGGCAGGCAUCAGAAGAAAUAGUCUUGCGCUCAACCAGAAAGUCUGUAAUCAUUUUAAGGGUA [U57G A90G], the figure is 0.88; as for GUUAACGGUCAUAGGCCAUGGAAACUAGGAGCACCAUUUCGCUGCCAGUGAAGAAAUAAACAAAGAAAAUCUGGGCCAGGCAGGCAUCAAAAGAAAUAGUCUCGCGCUCAACCAGAAAGUCUGUAAUCAUUUUAAGGGUA [G58A U103C], 1.09. As to GUUAACGGUCAUAGGCCAUGGAAACUAGGAGCACCAUUUCGCUGCCAGUGAAGAAAUAAACAAAGAAAAUCUGGGCCAGGCAGGCAUCAAAAGAAAUAGUCUUGCGCUCAACCAGGAAGUCUGUAAUCAUUUUAAGGGUA [G58A A116G], the self-cleavage is 0.29. With GUUAACGGUCAUAGGCCAUGGAAACUAGGAGCACCAUUUCGCUGCCAGUGAAGAAAUAAACAAAGAAAAUCUGGGCCAGGCAGGCAUCAAAAGAAAUAGUCUUGCGCUCAACCAGAAGGUCUGUAAUCAUUUUAAGGGUA [G58A A118G], the self-cleavage came to 0.52.

Regarding GUUAACGGUCAUAGGCCAUGGAAACUAGGAGCACCAUUUCGCUGCCAGUGAAGAAAUUAACAAAGAAAAUCUGGGCCAGGCAGGCAUCUAAAGAAAUAGUCUUGCGCUCAACCAGAAAGUCUGUAAUCAUUUUAAGGGUA [G58U A89U], the self-cleavage worked out at 1.46.

With GUUAACGGUCAUAGGCCAUGGAAACUAGGAGCACCAUUUCGCUGCCAGUGAAGAAAUAAACAAAGAAAAUCUGGGCCAGGCAGGCAUCAAAAGAAAUAGUCUUGCACUCAACCAGAAAGUCUGUAAUCAUUUUAAGGGUA [G58A G106A], the self-cleavage stood at 0.01. As for GUUAACGGUCAUAGGCCAUGGAAACUAGGAGCACCAUUUCGCUGCCAGUGAAGAAACGAACAAAGAAAAUCUGGGCCAGGCAGGCAUCAAAAGAAACAGUCUUGCGCUCAACCAGAAAGUCUGUAAUCAUUUUAAGGGUA [U57C U97C], the figure is 1.09; as for GUUAACGGUCAUAGGCCAUGGAAACUAGGAGCACCAUUUCGCUGCCAGUGAAGAAAGGAACAAAGAAAAUCUGGGCCAGGCAGGCAUCAAAAGGAAUAGUCUUGCGCUCAACCAGAAAGUCUGUAAUCAUUUUAAGGGUA [U57G A94G], 1.41. To GUUAACGGUCAUAGGCCAUGGAAACUAGGAGCACCAUUUCGCUGCCAGUGAAGAAAGGAACAAAGAAAAUCUGGGCCAGGCAGGCAUCAAAAGAAAUAGUCUUGCGCUCAACCAGAAAGUCUGUAAUCAUUUUAGGGGUA [U57G A135G] belongs 1.74.

Consider GUUAACGGUCAUAGGCCAUGGAAACUAGGAGCACCAUUUCGCUGCCAGUGAAGAAAUAAACAAAGAAAAUCUGGGCCAGGCAGGCAUCAAAAGAAAUAGUCUUGCGCUCAACCAGAAAGUCUGUAAUCAUUUUAAGGGUG [G58A A140G], for which the self-cleavage was 1.85. In the case of GUUAACGGUCAUAGGCCAUGGAAACUAGGAGCACCAUUUCGCUGCCAGUGAAGAAAUAAACAAAGAAAAUCUGGGCCAGGCAGGCAUCAAAAGAAAUAGUCUUGCGCUCAACCAGAAAGUCUGUAAUCAUUUCAAGGGUA [G58A U133C], the self-cleavage was 1.94. GUUAACGGUCAUAGGCCAUGGAAACUAGGAGCACCAUUUCGCUGCCAGUGAAGAAAGGAACAAAGAAAAUCUGGGCCAGGCAGGCAUCAAAAGAAAUAGUCUUGCGCUCAACCAGAAAGUCUGUAAUCAUUUUAAGGGUU [U57G A140U]: the self-cleavage stood at 1.23. In the case of GUUAACGGUCAUAGGCCAUGGAAACUAGGAGCACCAUUUCGCUGCCAGUGAAGAAAUUAACAAAGAAAAUCUGGGCCAGGCAGGCAUCAGAAGAAAUAGUCUUGCGCUCAACCAGAAAGUCUGUAAUCAUUUUAAGGGUA [G58U A90G], the self-cleavage amounted to 1.25. In the case of GUUAACGGUCAUAGGCCAUGGAAACUAGGAGCACCAUUUCGCUGCCAGUGAAGAAAGGAACAAAGAAAAUCUGGGCCAGGUAGGCAUCAAAAGAAAUAGUCUUGCGCUCAACCAGAAAGUCUGUAAUCAUUUUAAGGGUA [U57G C81U], the self-cleavage was 0.29.

GUUAACGGUCAUAGGCCAUGGAAACUAGGAGCACCAUUUCGCUGCCAGUGAAGAAACGAACAAAGAAAAUCUGGGCCAGGCAGGCAUCAAAAGAAAUAGACUUGCGCUCAACCAGAAAGUCUGUAAUCAUUUUAAGGGUA [U57C U100A]: the self-cleavage was 0.4.

GUUAACGGUCAUAGGCCAUGGAAACUAGGAGCACCAUUUCGCUGCCAGUGAAGAAAUUAACAAAGAAAAUCUGGGCCAGGCAGGCAUCAAAAGAAAUGGUCUUGCGCUCAACCAGAAAGUCUGUAAUCAUUUUAAGGGUA [G58U A98G]: the self-cleavage came out at 0.34.

Turning to GUUAACGGUCAUAGGCCAUGGAAACUAGGAGCACCAUUUCGCUGCCAGUGAAGAAAUAAACGAAGAAAAUCUGGGCCAGGCAGGCAUCAAAAGAAAUAGUCUUGCGCUCAACCAGAAAGUCUGUAAUCAUUUUAAGGGUA [G58A A62G], the self-cleavage was 1.01.

For the variant GUUAACGGUCAUAGGCCAUGGAAACUAGGAGCACCAUUUCGCUGCCAGUGAAGAAAGGAACAAAGAAAAUCUGGGCCAGGCAGGCAUCAAAAGAAAUAGCCUUGCGCUCAACCAGAAAGUCUGUAAUCAUUUUAAGGGUA [U57G U100C], the self-cleavage is 2.26. As for GUUAACGGUCAUAGGCCAUGGAAACUAGGAGCACCAUUUCGCUGCCAGUGAAGAAACGAACAAAGAAAAUCCGGGCCAGGCAGGCAUCAAAAGAAAUAGUCUUGCGCUCAACCAGAAAGUCUGUAAUCAUUUUAAGGGUA [U57C U72C], the figure is 0.04.
